Assay results as given in patent US20150299265A1 (Molecular Partners, published 2015).

B1: DARPin #65 (designed binder)
chain: MRGSHHHHHHGSDLGAKLLSDLGVKLLWAAARGQDDEVRILLAAGADVNAKDFQGITPLHIAAQSGHLEIVEVLLKAGADVNAKDVTGDTPLHLAAQHGHLVIVEVLLKAGADVNAQDERGWTPADLAADWGHEDIAEVLQKLGGGGSGGGGSRSDLGKKLLEAARAGQDDEVRILMANGADVNAKDEYGLTPLYLATAHGHLEIVEVLLKNGADVNAVDAIGFTPLHLAAFIGHLEIAEVLLKHGADVNAQDKFGKTAFDISIGNGNEDLAEILQKLNKLGGGGSGGGGSGGGGSGGGGSRSDLGKKLLEAARAGQDDEVRILMANGADVNAKDYFSHTPLHLAARNGHLKIVEVLLKAGADVNAKDFAGKTPLHLAANDGHLEIVEVLLKHGADVNAQDIFGKTPADIAADAGHEDIAEVLQKLN
B2: DARPin #35 (designed binder)
chain: MRGSHHHHHHGSDLGIKLLFAAAKGQDDEVRILLAAGADVNAKDFEGYTPLHVAAYDGHLEIVEVLLKAGADVNAKDSQGRTPLHEAAYSGHLEIVEVLLKAGADVNAQDDAGETPADLAAAWGHEDIAEVLQKLGGGGSGGGGSRSDLGIKLLQAANLGQDDEVRILLATGADVNAKDSIGQTPLHWAARRGHLEIVEVLLKAGADVNAKDEYGVTPLHLAASLGHLEIVEVLLKAGADVNAQDESGETPADLAALHGHEDIAEVLQKLN
B3: DARPin #67 (designed binder)
chain: MRGSHHHHHHGSDLGAKLLSDLGVKLLWAAARGQDDEVRILLAAGADVNAKDFQGITPLHIAAQSGHLEIVEVLLKAGADVNAKDVTGDTPLHLAAQHGHLVIVEVLLKAGADVNAQDERGWTPADLAADWGHEDIAEVLQKAAGGGGSDLGKKLLEAARAGQDDEVRILMANGADVNAKDEYGLTPLYLATAHGHLEIVEVLLKNGADVNAVDAIGFTPLHLAAFIGHLEIAEVLLKHGADVNAQDKFGKTAFDISIGNGNEDLAEILQKAA
B4: DARPin #63 (designed binder)
chain: MRGSHHHHHHGSDLGAKLLSDLGVKLLWAAARGQDDEVRILLAAGADVNAKDFQGITPLHIAAQSGHLEIVEVLLKAGADVNAKDVTGDTPLHLAAQHGHLVIVEVLLKAGADVNAQDERGWTPADLAADWGHEDIAEVLQKLGGGGSGGGGSRSDLGKKLLEAARAGQDDEVRILMANGADVNAKDEYGLTPLYLATAHGHLEIVEVLLKNGADVNAVDAIGFTPLHLAAFIGHLEIAEVLLKHGADVNAQDKFGKTAFDISIGNGNEDLAEILQKAAGGGSGGGSC
modifications: PEGylated at its C-terminal Cys residue
B5: DARPin #64 (designed binder)
chain: MRGSHHHHHHGSDLGKKLLEAARAGQDDEVRILMANGADVNAKDYFSHTPLHLAARNGHLKIVEVLLKAGADVNAKDFAGKTPLHLAANDGHLEIVEVLLKHGADVNAQDIFGKTPADIAADAGHEDIAEVLQKLGGGGSGGGGSGGGGSGGGGSRSDLGAKLLSDLGVKLLWAAARGQDDEVRILLAAGADVNAKDFQGITPLHIAAQSGHLEIVEVLLKAGADVNAKDVTGDTPLHLAAQHGHLVIVEVLLKAGADVNAQDERGWTPADLAADWGHEDIAEVLQKLGGGGSGGGGSRSDLGKKLLEAARAGQDDEVRILMANGADVNAKDEYGLTPLYLATAHGHLEIVEVLLKNGADVNAVDAIGFTPLHLAAFIGHLEIAEVLLKHGADVNAQDKFGKTAFDISIGNGNEDLAEILQKLN
B6: DARPin #27 (designed binder)
chain: MRGSHHHHHHGSDLGVKLLWAAARGQDDEVRILLAAGADVNAKDFQGITPLHIAATNGHLEIVEVLLKAGADVNAKDITGETPLHHAADSGHLEIVEVLLKAGADVNAQDKAGVTPADLAAAWGHEDIAEVLQKLGGGGSGGGGSRSDLGIKLLQAANLGQDDEVRILLATGADVNAKDSIGQTPLHWAARRGHLEIVEVLLKAGADVNAKDEYGVTPLHLAASLGHLEIVEVLLKAGADVNAQDESGETPADLAALHGHEDIAEVLQKLN
B7: DARPin #68 (designed binder)
chain: MRGSHHHHHHGSDLGAKLLSDLGVKLLWAAARGQDDEVRILLAAGADVNAKDFQGITPLHIAAQSGHLEIVEVLLKAGADVNAKDVTGDTPLHLAAQHGHLVIVEVLLKAGADVNAQDERGWTPADLAADWGHEDIAEVLQKAAGSPTPTPTTPTPTPTTPTPTPTGSDLGKKLLEAARAGQDDEVRILMANGADVNAKDEYGLTPLYLATAHGHLEIVEVLLKNGADVNAVDAIGFTPLHLAAFIGHLEIAEVLLKHGADVNAQDKFGKTAFDISIGNGNEDLAEILQKAA
B8: DARPin #66 (designed binder)
chain: MRGSHHHHHHGSDLGAKLLSDLGVKLLWAAARGQDDEVRILLAAGADVNAKDFQGITPLHIAAQSGHLEIVEVLLKAGADVNAKDVTGDTPLHLAAQHGHLVIVEVLLKAGADVNAQDERGWTPADLAADWGHEDIAEVLQKAAGSDLGKKLLEAARAGQDDEVRILMANGADVNAKDEYGLTPLYLATAHGHLEIVEVLLKNGADVNAVDAIGFTPLHLAAFIGHLEIAEVLLKHGADVNAQDKFGKTAFDISIGNGNEDLAEILQKAA
B9: DARPin #60 (designed binder)
chain: MRGSHHHHHHGSDLGVKLLWAAARGQDDEVRELLKAGADVNAKDFQGITPLHIAAQSGHLEIVEVLLKAGADVNAKDVTGDTPLHLAAQHGHLEIVEVLLKAGADVNAQDERGWTPADLAADWGHEDIAEVLQKLN
notes: monovalent
B10: DARPin #6 (designed binder)
chain: MRGSHHHHHHGSDLGVNLLWAATRGQDDEVRILLAAGADVNAKDFEGVTPLHLAAQWGHLEIVEVLLKAGADVNAKDVTGDTPLHLAAQHGHLEIVEVLLKAGADVNAQDERGWTPADLAADWGHEDIAEVLQKLN
notes: monovalent
B11: DARPin #57 (designed binder)
chain: MRGSHHHHHHGSDLGIKLLWAAAQGQDDEVRILLAAGADVNAKDFQGVTPLHIAAQSGHLEVVEVLLKAGADVNAKDVTGDTPLHLAAQHGHLEIVEVLLKAGADVNAQDERGWTPADLAADWGHEDIAEVLQKLN
notes: monovalent
B12: DARPin #3 (designed binder)
chain: MRGSHHHHHHGSDLGIKLLFAAAKSQDDEVRILLAAGADVNAKDFQSVTPLHIAAQSGHLEIVEVLLKAGADVNAKDVTGDTPLHLAAQHGHLEIVEVLLKAGADVNAQDERGWTPADLAADWGHEDIAEVLQKLN
notes: monovalent
B13: DARPin #4 (designed binder)
chain: MRGSHHHHHHGSDLGVKLLWAAARGQDDEVRELLKAGADVNAKDFQGITPLHIAAQSGHLEIVEVLLKAGADVNAKDVTGDTPLHLAAQHGHLEIVEVLLKAGADVNAQDERGKTPADLAADWGHEDIAEVLQKLN
notes: The list of constructs skips DARPin #4
B14: DARPin #1 (designed binder)
chain: MRGSHHHHHHGSDLGVKLLWAAARGQDDEVRILLAAGADVNAKDFQGITPLHIAAQSGHLEIVEVLLKAGADVNAKDVTGDTPLHLAAQHGHLVIVEVLLKAGADVNAQDERGWTPADLAADWGHEDIAEVLQKLN
notes: monovalent
B15: DARPin #58 (designed binder)
chain: MRGSHHHHHHGSDLGFKLLFAAAKSQDDEVRILLAAGADVNAKDFQGVTSLHIAAQSGHLEIVEVLLKAGADVNAKDVTGDTPLHLAAQHGHLEIVEVLLKAGADVNAQDERGWTPADLAADWGHEDIAEVLQKLN
notes: monovalent
B16: DARPin #54 (designed binder)
chain: MRGSHHHHHHGSDLGIKLLFAAAKGQDDEVRELLKAGADVNAKDFQGVTPLHIAAQSGHLEIVEVLLKAGADVNAKDVTGDTPLHLAAQHGHLEIVEVLLKAGADVNAQDERGWTPADLAADWGHEDIAEVLQKLN
notes: monovalent
B17: DARPin #55 (designed binder)
chain: MRGSHHHHHHGSDLGIKLLIAASHGQDDEVRILLAAGANVNAKDFQGVTPLHIAAQSGHLEIVEVLLKAGADVNAKDVTGDTPLHLAAQHGHLEIVEVLLKAGADVNAQDERGWTPADLAADWGHEDIAEVLQKLN
notes: monovalent
B18: DARPin #56 (designed binder)
chain: MRGSHHHHHHGSDLGQKLLIAASRGQDDEVRILLAAGADVNAKDFQGVTPLHIAAQSGHLEIVEVLLKAGADVNAKDVTGDTPLHLAAQHGHLEIVEVLLKAGADVNAQDERGWTPTDLAADWGHEDIAEVLQKLN
notes: monovalent
B19: DARPin #2 (designed binder)
chain: MRGSHHHHHHGSDLGVKLLWAAARGQDDEVRELLKAGADVNAKDFQGITPLHIAATSGHLEIVEVLLKAGADVNAKDITGETPLHHAADSGHLEIVEVLLKAGADVNAQDKAGVTPADLAAAWGHEDIAEVLQKLN
notes: monovalent

target: Human HER2 expressed on tumour cells (human, UniProt P04626 23-1255); experiment: cell-based or functional assay

First: B1
Second: B2
The “% activity vs. DARPin # 41, BT474 cell proliferation” value of the first is higher: 100% for the first, 63% for the second.

B3 and B4 are the same in “% activity vs. DARPin # 41, BT474 cell proliferation” value: 100% for the first, 100% for the second.

Going from B5 to B6, the “% activity vs. DARPin # 41, BT474 cell proliferation” value falls from 100% to 37.8%.

B7 and B8 are the same in “% activity vs. DARPin # 41, BT474 cell proliferation” value: 100% for the first, 100% for the second.

B1 and B2 are within 1.5-fold of each other in “IC50 [nM], inhibition of BT474 cell proliferation (BrdU)” value (from here on “IC50 [nM], inhibition”): 4.07 nM for the first, 4.63 nM for the second.

Going from B3 to B4, the “IC50 [nM], inhibition” value falls from 4.87 nM to 1.77 nM (2.8-fold).

Going from B5 to B6, the “IC50 [nM], inhibition” value rises from 2.31 nM to 4.57 nM (2-fold).

B7 and B8 are within 1.5-fold of each other in “IC50 [nM], inhibition” value: 5.35 nM for the first, 4.06 nM for the second.

target: T1, Recombinant human HER2 ectodomain (human, UniProt P04626 23-652, biotinylated on primary amines (for SPR and crude extract ELISA)); experiment: SPR (ProteOn); biotinylated human HER2 on neutravidin chip, monovalent DARPin injected
T1 construct: extracellular domain; also called ErbB2; ectodomain of human HER2; not shown: Flag tag
Protocol: Protein binding kinetics of interesting purified HER2-binding DARPins were assayed by Surface Plasmon Resonance (SPR) analysis with a ProteOn array system (BioRad) using a setup, where biotinylated human HER2 was immobilized via neutravidin and the interaction was measured by adding free monovalent DARPin. The determination of Kd values was performed according to standard procedures.
SPR was measured using a ProteOn instrument (BioRad) and measurement was performed according standard procedures known to the person skilled in the art. The running buffer was PBS, pH 7.4, containing 0.005% Tween 20®. Neutravidin was covalently immobilized on a GLC chip (BioRad) to a level of about 8000 resonance units (RU). Immobilization of HER2 on the neutravidin coated chip was then performed. […] The signals (i.e. resonance unit (RU) values) of an uncoated reference cell and a reference injection (i.e. injection of running buffer only) were subtracted from the RU traces obtained after injection of […] (double-referencing). From the SRP traces obtained from the on-rate and off-rate measurements the on- and off-rate of the corresponding DARPin HER2 interaction can be determined.
Dissociation constants (Kd) were calculated from the estimated on- and off-rates using standard procedures known to the person skilled in the art.

First: B9
Second: B10
The Kd of the first is 2.5-fold lower: 0.0117 nM for the first, 0.0292 nM for the second. The first binds more tightly here.

Compared with B11, B12 is 4.6-fold lower in Kd: 0.0604 nM for the first, 0.0131 nM for the second.

First: B13
Second: B14
The Kd of the first is 2.4-fold higher: 0.186 nM for the first, 0.0781 nM for the second. The second binds more tightly here.

Going from B15 to B16, the Kd falls from 0.0413 nM to 0.00927 nM (4.5-fold).

Compared with B17, B18 is 23-fold higher in Kd: 0.0873 nM for the first, 2 nM for the second. The first binds more tightly here.

For B19, the Kd was 0.875 nM.
